Assays:
[1] = target: Sst2^catD354A (Asp354Ala mutant of the catalytic domain of Sst2) (S. pombe) (UniProt Q9P371); assay: ITC
[2] = target: catalytic domain of Sst2 (residues 245–435), Sst2^cat (S. pombe) (UniProt Q9P371); assay: ITC
catalytic domain of Sst2 (residues 245–435), Sst2^cat (S. pombe), sequence (Q9P371 245-435): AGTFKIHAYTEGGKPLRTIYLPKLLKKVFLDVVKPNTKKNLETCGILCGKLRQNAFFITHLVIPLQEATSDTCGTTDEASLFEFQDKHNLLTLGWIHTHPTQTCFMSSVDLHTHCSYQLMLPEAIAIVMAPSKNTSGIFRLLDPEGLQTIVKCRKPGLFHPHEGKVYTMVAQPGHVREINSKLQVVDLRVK

Sst2^catD354A (Asp354Ala mutant of the catalytic domain of Sst2) (S. pombe), sequence (Q9P371 245-435 D354A): as the sequence (Q9P371 245-435) above, with D110A counted along it

Kd [1] [nM] | dH [1] [kcal/mol] | dH [2] [kcal/mol] | Substance
1100 | 11.8 | – | Lys63-linked diubiquitin, enzymatically synthesized from Lys63Arg and Asp77 ubiquitin mutants
– | – | 11.9 | ubiquitin (from a pRSETA plasmid, for isothermal titration calorimetry) (from UniProt P0CG48 1-76) (natural protein)

From paper PMC4033627
